The record followed here is the supplement of paper PMC10065799, “High-throughput profiling of sequence recognition by tyrosine kinases and SH2 domains using bacterial peptide display” (eLife, 2023).

The subject of one data set is AncSZ. The experiment in a line: phosphorylation enrichment, bacterial display (enrichment ratio); higher = better substrate or ligand; peptides without Tyr show the background.
The target of another data set is EPHB1 (UniProt P54762). Described as above.
Another data set concerns the target EPHB2 (UniProt P29323). Described as above.
A further data set has as its target FGFR1 (UniProt P11362). The data set is described as above.
In the next data set the target is FGFR3 (UniProt P22607). The description is as above.
FGFR3, sequence (P22607 whole entry, looked up): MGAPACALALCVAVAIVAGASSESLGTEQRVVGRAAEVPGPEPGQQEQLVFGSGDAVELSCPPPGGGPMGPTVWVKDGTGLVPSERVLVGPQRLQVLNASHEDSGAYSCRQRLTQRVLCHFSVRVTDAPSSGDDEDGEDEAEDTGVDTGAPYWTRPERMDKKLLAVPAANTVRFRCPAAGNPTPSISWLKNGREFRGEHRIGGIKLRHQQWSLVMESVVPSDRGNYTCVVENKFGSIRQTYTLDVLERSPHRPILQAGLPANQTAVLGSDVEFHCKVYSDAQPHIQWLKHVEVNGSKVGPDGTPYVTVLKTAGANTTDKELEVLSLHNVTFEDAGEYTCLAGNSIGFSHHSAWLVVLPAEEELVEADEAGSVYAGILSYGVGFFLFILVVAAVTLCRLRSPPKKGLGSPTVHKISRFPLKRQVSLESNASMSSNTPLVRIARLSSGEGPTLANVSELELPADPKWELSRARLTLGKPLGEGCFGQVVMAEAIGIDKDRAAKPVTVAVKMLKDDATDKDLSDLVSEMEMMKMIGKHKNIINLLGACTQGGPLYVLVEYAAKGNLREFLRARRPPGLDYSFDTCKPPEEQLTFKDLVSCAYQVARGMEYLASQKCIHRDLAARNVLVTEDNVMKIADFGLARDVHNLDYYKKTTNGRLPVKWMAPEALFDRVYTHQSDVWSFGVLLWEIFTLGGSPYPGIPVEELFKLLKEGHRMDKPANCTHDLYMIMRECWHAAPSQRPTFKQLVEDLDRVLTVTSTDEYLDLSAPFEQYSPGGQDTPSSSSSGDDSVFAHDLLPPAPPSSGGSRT
The subject of another data set is Fer (mouse). The description is as above.
The target of a further data set is Fes (UniProt P07332). The data set is described as above.
The target in a further data set is Fyn (UniProt P06241). The data set is described as above.
Fyn, sequence (P06241 whole entry, looked up): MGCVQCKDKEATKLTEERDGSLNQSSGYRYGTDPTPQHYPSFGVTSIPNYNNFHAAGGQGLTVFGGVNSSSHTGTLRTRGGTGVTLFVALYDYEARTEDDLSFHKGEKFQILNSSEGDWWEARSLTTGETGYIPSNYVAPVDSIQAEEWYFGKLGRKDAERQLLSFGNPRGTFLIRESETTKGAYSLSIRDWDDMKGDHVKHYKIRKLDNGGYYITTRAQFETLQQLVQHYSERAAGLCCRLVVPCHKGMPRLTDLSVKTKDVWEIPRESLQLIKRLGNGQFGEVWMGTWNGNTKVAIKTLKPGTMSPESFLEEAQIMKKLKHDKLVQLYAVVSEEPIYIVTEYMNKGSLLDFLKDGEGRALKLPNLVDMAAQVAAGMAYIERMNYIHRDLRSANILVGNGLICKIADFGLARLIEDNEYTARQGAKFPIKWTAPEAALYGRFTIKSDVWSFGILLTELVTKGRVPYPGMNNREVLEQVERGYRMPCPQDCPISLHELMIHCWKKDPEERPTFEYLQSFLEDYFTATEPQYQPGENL
A further data set concerns the target Hck (UniProt P08631). The data set is described as above.
The target in another data set is Jak2 (UniProt O60674). The data set is described as above.
A further data set addresses MERTK (UniProt Q12866). The data set is described as above.
The subject of a further data set is c-Abl (mouse). The data set is described as above.
Another data set has as its system c-Src. The data set is described as above.
The target in another data set is Grb2 SH2 (UniProt P62993). The experiment in a line: SH2 binding enrichment of the phosphorylated peptide, bacterial display (enrichment ratio); higher = better substrate or ligand; peptides without Tyr show the background.
Grb2 SH2, sequence (P62993 whole entry, looked up): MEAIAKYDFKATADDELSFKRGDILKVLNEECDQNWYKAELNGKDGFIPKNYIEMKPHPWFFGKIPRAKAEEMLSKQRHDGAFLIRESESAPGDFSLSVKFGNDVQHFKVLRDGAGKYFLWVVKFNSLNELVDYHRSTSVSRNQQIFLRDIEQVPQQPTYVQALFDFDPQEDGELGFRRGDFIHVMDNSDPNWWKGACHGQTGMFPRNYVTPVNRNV
The target in a further data set is SHP2-C SH2. The data set is described as above.
In another data set the target is c-Src SH2. Described as above.
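For SH2 binding enrichment of the phosphorylated peptide, bacterial display in this document: peptide library displayed on the E. coli surface as eCPX fusions, selected cells deep-sequenced, score is each peptide's frequency after selection divided by its frequency in the input.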
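For phosphorylation enrichment, bacterial display in this document: 11-residue human phosphosite peptides and single-mutation variants displayed on the E. coli surface, counted by deep sequencing, each peptide's frequency after selection divided by its frequency in the unselected input library; frequency after pTyr selection over input frequency; kinase dosed for 20-30% of maximal phosphorylation in three min.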

EPHB2, sequence (P29323 whole entry, looked up): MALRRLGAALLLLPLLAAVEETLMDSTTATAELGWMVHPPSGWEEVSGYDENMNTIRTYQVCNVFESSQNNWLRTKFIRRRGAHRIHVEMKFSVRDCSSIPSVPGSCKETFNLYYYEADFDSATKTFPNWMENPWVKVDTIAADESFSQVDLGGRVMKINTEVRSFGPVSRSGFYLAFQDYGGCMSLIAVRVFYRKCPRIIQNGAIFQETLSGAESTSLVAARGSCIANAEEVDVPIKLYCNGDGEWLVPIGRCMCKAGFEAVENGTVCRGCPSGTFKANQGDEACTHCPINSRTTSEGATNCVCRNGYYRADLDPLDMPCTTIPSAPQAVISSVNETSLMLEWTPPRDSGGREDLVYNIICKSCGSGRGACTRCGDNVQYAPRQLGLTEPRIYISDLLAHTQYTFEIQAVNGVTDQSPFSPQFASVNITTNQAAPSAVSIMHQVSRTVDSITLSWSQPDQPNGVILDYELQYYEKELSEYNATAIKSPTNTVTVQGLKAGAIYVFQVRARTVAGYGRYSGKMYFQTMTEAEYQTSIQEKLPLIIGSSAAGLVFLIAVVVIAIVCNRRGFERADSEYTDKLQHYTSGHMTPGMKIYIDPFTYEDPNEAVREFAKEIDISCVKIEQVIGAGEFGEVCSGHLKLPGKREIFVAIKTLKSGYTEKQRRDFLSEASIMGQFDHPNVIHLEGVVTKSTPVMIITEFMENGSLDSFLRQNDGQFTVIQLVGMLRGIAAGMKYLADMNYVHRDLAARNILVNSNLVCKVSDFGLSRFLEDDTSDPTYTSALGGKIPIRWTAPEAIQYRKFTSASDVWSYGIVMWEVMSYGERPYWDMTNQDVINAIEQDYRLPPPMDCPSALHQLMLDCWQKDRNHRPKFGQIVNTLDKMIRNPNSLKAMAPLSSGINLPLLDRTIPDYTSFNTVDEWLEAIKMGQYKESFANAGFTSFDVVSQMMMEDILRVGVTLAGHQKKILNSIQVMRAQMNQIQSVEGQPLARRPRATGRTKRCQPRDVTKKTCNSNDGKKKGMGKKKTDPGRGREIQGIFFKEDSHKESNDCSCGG
EPHB1, sequence (P54762 whole entry, looked up): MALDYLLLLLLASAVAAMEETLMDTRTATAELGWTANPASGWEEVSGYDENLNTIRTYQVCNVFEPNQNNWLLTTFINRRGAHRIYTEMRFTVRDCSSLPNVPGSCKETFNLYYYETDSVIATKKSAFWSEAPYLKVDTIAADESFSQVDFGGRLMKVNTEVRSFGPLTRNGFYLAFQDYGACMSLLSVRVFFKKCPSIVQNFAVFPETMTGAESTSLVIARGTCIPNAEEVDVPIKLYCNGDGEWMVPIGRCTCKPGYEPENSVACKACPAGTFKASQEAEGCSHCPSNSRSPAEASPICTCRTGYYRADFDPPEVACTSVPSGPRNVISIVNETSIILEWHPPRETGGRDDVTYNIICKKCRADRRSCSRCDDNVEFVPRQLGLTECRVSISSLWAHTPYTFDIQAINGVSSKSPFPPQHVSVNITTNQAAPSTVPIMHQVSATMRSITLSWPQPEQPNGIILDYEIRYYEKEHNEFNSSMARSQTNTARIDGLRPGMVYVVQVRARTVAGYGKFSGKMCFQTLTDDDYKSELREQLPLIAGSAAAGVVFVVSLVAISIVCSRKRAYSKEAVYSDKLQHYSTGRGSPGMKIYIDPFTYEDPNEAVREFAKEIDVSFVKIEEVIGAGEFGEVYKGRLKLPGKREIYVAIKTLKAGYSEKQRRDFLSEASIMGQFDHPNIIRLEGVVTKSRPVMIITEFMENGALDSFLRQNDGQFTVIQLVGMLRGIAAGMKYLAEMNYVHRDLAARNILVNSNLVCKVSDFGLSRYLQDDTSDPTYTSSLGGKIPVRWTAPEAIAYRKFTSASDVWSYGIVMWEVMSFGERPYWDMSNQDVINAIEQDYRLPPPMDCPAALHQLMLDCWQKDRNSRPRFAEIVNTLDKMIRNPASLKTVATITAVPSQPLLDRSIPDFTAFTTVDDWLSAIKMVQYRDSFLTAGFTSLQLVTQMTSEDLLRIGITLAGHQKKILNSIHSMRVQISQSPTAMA
Hck, sequence (P08631 whole entry, looked up): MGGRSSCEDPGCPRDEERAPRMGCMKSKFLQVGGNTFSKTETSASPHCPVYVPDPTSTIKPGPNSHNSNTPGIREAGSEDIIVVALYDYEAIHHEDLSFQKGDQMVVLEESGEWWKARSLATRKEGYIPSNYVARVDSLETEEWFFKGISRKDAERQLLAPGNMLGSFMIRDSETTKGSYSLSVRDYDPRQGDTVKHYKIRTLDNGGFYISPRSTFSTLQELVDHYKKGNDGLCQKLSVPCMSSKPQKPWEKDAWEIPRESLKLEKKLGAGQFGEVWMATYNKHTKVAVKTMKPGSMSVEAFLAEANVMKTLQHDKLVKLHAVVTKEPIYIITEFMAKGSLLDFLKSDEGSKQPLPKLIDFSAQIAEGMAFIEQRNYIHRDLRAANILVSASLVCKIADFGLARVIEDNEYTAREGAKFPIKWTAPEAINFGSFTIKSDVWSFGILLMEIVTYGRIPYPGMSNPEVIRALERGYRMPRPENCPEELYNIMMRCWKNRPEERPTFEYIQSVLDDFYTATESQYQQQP
FGFR1, sequence (P11362 whole entry, looked up): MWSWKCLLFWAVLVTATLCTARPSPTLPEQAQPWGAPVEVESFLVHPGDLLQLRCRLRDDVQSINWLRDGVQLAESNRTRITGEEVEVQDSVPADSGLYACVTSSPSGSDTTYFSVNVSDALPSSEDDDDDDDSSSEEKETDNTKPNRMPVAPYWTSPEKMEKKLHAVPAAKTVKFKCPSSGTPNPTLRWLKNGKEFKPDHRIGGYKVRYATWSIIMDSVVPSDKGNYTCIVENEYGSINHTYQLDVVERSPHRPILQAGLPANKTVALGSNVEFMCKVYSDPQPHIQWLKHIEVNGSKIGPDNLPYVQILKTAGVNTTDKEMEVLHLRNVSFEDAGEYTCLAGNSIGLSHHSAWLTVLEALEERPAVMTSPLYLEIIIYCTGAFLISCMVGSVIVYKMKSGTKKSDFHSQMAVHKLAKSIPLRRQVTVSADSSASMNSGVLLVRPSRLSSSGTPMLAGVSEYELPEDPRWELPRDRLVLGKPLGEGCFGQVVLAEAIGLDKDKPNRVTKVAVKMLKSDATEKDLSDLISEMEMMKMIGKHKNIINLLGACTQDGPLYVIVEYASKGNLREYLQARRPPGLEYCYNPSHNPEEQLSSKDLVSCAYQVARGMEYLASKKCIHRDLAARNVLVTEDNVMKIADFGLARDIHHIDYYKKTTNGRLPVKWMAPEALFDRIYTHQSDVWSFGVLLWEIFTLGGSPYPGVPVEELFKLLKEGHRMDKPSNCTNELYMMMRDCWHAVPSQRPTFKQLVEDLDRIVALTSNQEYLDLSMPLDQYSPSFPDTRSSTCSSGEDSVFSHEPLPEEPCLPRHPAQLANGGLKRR

Turning to IYHLSYIHNCE [PDE6B_Y227_L228I], the phosphorylation enrichment in the data set on AncSZ was 1.3; with EPHB1, 0.783; with EPHB2, 0.724; with FGFR1, 2.65; in the data set with FGFR3 it was 2.16; with Fer (mouse) it was 1.67. Also, the phosphorylation enrichment with Fes was 1.38; with Fyn it was 2.78; with Hck, 1.81; with Jak2 it was 1.18; in the data set with MERTK it was 4.22; with c-Abl (mouse) it was 4.3. Besides, the phosphorylation enrichment with c-Src worked out at 2.65. The SH2 binding enrichment with Grb2 SH2 stood at 1.35; in the data set with SHP2-C SH2, 1.27; with c-Src SH2, 0.819.

IYRASYYRRGD [LTK_Y676]: the phosphorylation enrichment worked out at 0.821 in the data set with AncSZ; 0.398 in the data set with EPHB1; 0.422 in the data set with EPHB2; 0.481 with FGFR1; 0.555 in the data set with FGFR3; 0.453 with Fer (mouse). Moreover, the phosphorylation enrichment with Fes stood at 0.757; with Fyn it was 0.594; with Hck, 1.2; with Jak2, 0.621; in the data set with MERTK, 0.763; with c-Abl (mouse), 0.927. For the same sequence, the phosphorylation enrichment in the data set with c-Src worked out at 0.666. The SH2 binding enrichment with Grb2 SH2 turned out to be 0.728; with SHP2-C SH2, 0.471; in the data set with c-Src SH2 it was 0.439.

In the case of KACNPYKPPGP, the phosphorylation enrichment in the data set with AncSZ stood at 0.629; with EPHB1, 0.464; with EPHB2, 0.478; with FGFR1 it was 0.462; with FGFR3, 0.589; with Fer (mouse), 0.521. Moreover, the phosphorylation enrichment stood at 0.663 in the data set with Fes; 0.521 with Fyn; 0.496 with Hck; 0.881 in the data set with Jak2; 0.543 in the data set with MERTK; 0.524 with c-Abl (mouse). In the data set with c-Src, the phosphorylation enrichment came to 0.699. Besides, the SH2 binding enrichment came to 1.01 with Grb2 SH2, 0.893 with SHP2-C SH2 and 0.76 in the data set with c-Src SH2.

For the sequence KAPVDYIRKLQ [MITF_Y360_S357P], the phosphorylation enrichment came out at 0.547 in the data set on AncSZ; 0.416 in the data set with EPHB1; 0.436 with EPHB2; 0.328 in the data set with FGFR1; 0.423 with FGFR3; 0.365 with Fer (mouse). The phosphorylation enrichment with Fes was found to be 0.616; with Fyn, 0.338; with Hck, 0.346; with Jak2 it was 0.576; in the data set with MERTK, 0.399; with c-Abl (mouse), 0.475. The phosphorylation enrichment in the data set on c-Src came to 0.406. For the same sequence, the SH2 binding enrichment in the data set with Grb2 SH2 worked out at 0.912; with SHP2-C SH2, 0.621; with c-Src SH2 it was 0.489.

As for KASIMYPSNNC [CXCL11_Y52], the phosphorylation enrichment came out at 0.673 in the data set with AncSZ; 0.528 in the data set with EPHB1; 0.472 in the data set with EPHB2; 0.484 with FGFR1; 0.49 in the data set with FGFR3; 0.359 in the data set on Fer (mouse). Moreover, the phosphorylation enrichment with Fes was found to be 0.786; in the data set with Fyn, 0.446; with Hck, 0.459; with Jak2, 0.604; with MERTK it was 0.368; in the data set with c-Abl (mouse) it was 0.518. For the same sequence, the phosphorylation enrichment with c-Src was 0.394. Besides, the SH2 binding enrichment with Grb2 SH2 turned out to be 0.952; with SHP2-C SH2, 0.504; with c-Src SH2, 0.589.

KDHPDYEFQPR [SOX9_Y172_K173E_YF]: the phosphorylation enrichment stood at 1.81 in the data set with AncSZ; 1.05 in the data set with EPHB1; 0.585 with EPHB2; 0.712 with FGFR1; 0.614 with FGFR3; 0.475 in the data set with Fer (mouse). For the same sequence, the phosphorylation enrichment with Fes was found to be 0.723; with Fyn, 0.448; with Hck, 0.504; in the data set with Jak2, 0.665; with MERTK, 0.319; in the data set on c-Abl (mouse), 0.509. Besides, in the data set on c-Src, the phosphorylation enrichment was found to be 0.425. Besides, the SH2 binding enrichment is 0.863 with Grb2 SH2, 0.73 with SHP2-C SH2 and 0.568 with c-Src SH2.

In the case of KDQGTYEDFVE [MYL6_Y86_YF], the phosphorylation enrichment in the data set on AncSZ came out at 1.31; in the data set with EPHB1, 0.569; with EPHB2 it was 0.59; with FGFR1, 0.906; in the data set with FGFR3, 1.35; in the data set with Fer (mouse) it was 0.911. The phosphorylation enrichment in the data set with Fes was 2.32; with Fyn, 0.616; in the data set with Hck it was 0.966; in the data set with Jak2, 1.94; in the data set with MERTK it was 1.12; in the data set on c-Abl (mouse), 1.97. Moreover, the phosphorylation enrichment with c-Src amounted to 1.31. For the same sequence, the SH2 binding enrichment in the data set with Grb2 SH2 stood at 0.509; in the data set with SHP2-C SH2 it was 0.247; with c-Src SH2, 1.46.

Consider KFDLMYAKWAF [TUBA3E_Y399], for which the phosphorylation enrichment in the data set with AncSZ was found to be 1.18; in the data set with EPHB1, 0.783; in the data set with EPHB2, 0.784; in the data set with FGFR1, 0.669; with FGFR3, 0.866; in the data set on Fer (mouse) it was 5.85. In addition, the phosphorylation enrichment with Fes was 1.26; with Fyn, 1.43; in the data set with Hck, 2.16; with Jak2, 1; with MERTK, 3.02; in the data set with c-Abl (mouse), 1.68. Further, the phosphorylation enrichment in the data set on c-Src was 1.98. Further, the figures for the SH2 binding enrichment with Grb2 SH2, in the data set with SHP2-C SH2 and with c-Src SH2 were 1.24, 0.919 and 1.18, respectively.
